Test results reported in article PMC4832192, “Structural basis of DNA sequence recognition by the response regulator PhoP in Mycobacterium tuberculosis”.

B1: hisG (dsDNA)
DNA 1: CGCGACCCGCAGCATGCTCACAGCTTTCGA
DNA 2: TCGAAAGCTGTGAGCATGCTGCGGGTCGCG
B2: ahpC (dsDNA)
DNA 1: TTTGCCTGACAGCGACTTCACGGCACGATG
DNA 2: CATCGTGCCGTGAAGTCGCTGTCAGGCAAA
B3: DR (dsDNA)
DNA 1: ACGATTCACAGCTGATTCACAGCATCTACG
DNA 2: CGTAGATGCTGTGAATCAGCTGTGAATCGT
B4: lpqA (dsDNA)
DNA 1: GCACCTTCACCGCCCGCCCACAGCCACGCA
DNA 2: TGCGTGGCTGTGGGCGGGCGGTGAAGGTGC
B5: DRs3 (3-bp spacer) (dsDNA)
DNA 1: AAGTACCTCACAGCACTTCACAGCTTTCAT
DNA 2: ATGAAAGCTGTGAAGTGCTGTGAGGTACTT

biological target: PhoP Y205A (Mycobacterium tuberculosis, UniProt P71814 1-247, Y205A); test: ITC; 5 mM MgCl2; ITC: 20 mM HEPES pH 7.5, 100 mM NaCl, 5 mM MgCl2, 25 C, […]; details: protein: recombinant; tags: N-terminal His-tag removed with TEV; chain copies: 2

| Binder | Kd [nM] |
| --- | --- |
| B1 | 114 ± 11.2 |
| B2 | 654 ± 57.2 |
| B3 | 21.8 ± 6.2 |
| B4 | 3080 ± 371 |

biological target: PhoP L113D (Mycobacterium tuberculosis, UniProt P71814 1-247, L113D); test: as above; details: protein: recombinant; tags: N-terminal His-tag removed with TEV; chain copies: 2

| Binder | Kd [nM] |
| --- | --- |
| B1 | 117 ± 11.7 |
| B2 | 595 ± 51.4 |
| B3 | 26.2 ± 6.5 |
| B4 | 2870 ± 541 |
| B5 | 368 ± 52.2 |
